The results in this text go back to patent US20120027773A1.

In assay [1] the target is human wild-type RON (cell surface) (human) (UniProt Q04912). Nature of the assay: FACS, 10 ug/ml, PC3 cells, 4 C; negative control. For orientation: Flow cytometry measures light scatter and fluorescence of single cells or particles in a stream.
The target in assay [2] is delta 160 RON variant (cell surface) (human) (UniProt Q04912). Nature of the assay: FACS, 10 ug/ml, HT-29 cells, 4 C; negative control.

The substance murine IgG control (antibody) came in with a PC3 % cell surface binding in assay [1] of 5.5%. This substance had an HT-29 % cell surface binding in assay [2] of 5.62%.
